The results in this text go back to patent US7244430.

First the molecules themselves.
B1: SC04-353 (scFv)
scFv: EVQLVQSGGGVVQPGRSLRLSCAASGFTFSNYAMHWVRQAPGKGLEWVAVISYDGGNKYYADSVKGRFTMSRDNSKNTLYLQMNSLRAEDTAVYYCARDFWSGYSMVDSYYYYMDVWGKGTTVTVSSGTGGSGGTGSGTGGSTETTLTQSPGTLSLSPGERATLSCRASQSVSNTFLAWYQQKPGQAPRLLIYGASSRATGIPDRFSGSGSGTDFTLTISRLEPEDFAAYYCQQYGSSLTFGPGTKVDIKR
B2: SC04-374 (scFv)
scFv: QVTLKESGPTLVKPTQTLTLTCTFSGFSLSTSGVGVGWIRQPPGKALEWLAVIYWNDDKLYRPSLKSRLTITKDTSKNQVVLTMTKMDPVDTATYYCAHRHRYYDISGYYRLFSDAFDIWGQGTMVTVSSGTGGSGGTGSGTGGSTQSVVTQPPSVSGAPGQRVTISCTGSSSNIGAGYDVHWYQQLPGTAPKLLIYGNSNRPSGVPDRFSGSKSGTSASLAITGLQAEDEADYYCQSYDSSLSGSVFGGGTKLTVLG
B3: SC04-361 (scFv)
scFv: EVQLVQSGAEVKKPGESLKISCKASGFSFSTYWIGWVRQMPGKGLEWMGIIYPADSDTRYSPSFQGQVTISADKSISTAYLQWSSLKASDTAMYYCARLRGPYYDFWNGYRETHDAFNVWGQGTMVTVSSGTGGSGGTGSGTGGSTDVVMTQSPDSLAVSLGERATINCKSSQNILDNSDNKNFLAWYQQKPGQPPKLLIYWASARESGVPDRFSGSGSGTDFTLTISSLQAEDVALYYCQQYYNTPITFGQGTRLEIKR

For this assay, the target named is whole inactivated rabies virus. Nature of the assay: phage ELISA, coated whole inactivated rabies virus. A general note: In an ELISA, binding on a coated surface is turned into a signal by an enzyme label.
The molecule B1 showed an OD 492 nm of 0.057 OD 492 nm. The result for B2 reads 0.056 OD 492 nm. Consider B3, for which the OD 492 nm came to 0.059 OD 492 nm.
